Here are results for twelve variants from IntAct's records for PubMed 29039417.

First the molecules themselves.
B1: BBSome complex member BBS4 (Homo sapiens), Q96RK4 (parent)
chain: MAEERVATRTQFPVSTESQKPRQKKAPEFPILEKQNWLIHLHYIRKDYEACKAVIKEQLQETQGLCEYAIYVQALIFRLEGNIQESLELFQTCAVLSPQSADNLKQVARSLFLLGKHKAAIEVYNEAAKLNQKDWEISHNLGVCYIYLKQFNKAQDQLHNALNLNRHDLTYIMLGKIHLLEGDLDKAIEVYKKAVEFSPENTELLTTLGLLYLQLGIYQKAFEHLGNALTYDPTNYKAILAAGSMMQTHGDFDVALTKYRVVACAVPESPPLWNNIGMCFFGKKKYVAAISCLKRANYLAPFDWKILYNLGLVHLTMQQYASAFHFLSAAINFQPKMGELYMLLAVALTNLEDIENAKRAYAEAVHLDKCNPLVNLNYAVLLYNQGEKKNALAQYQEMEKKVSLLKDNSSLEFDSEMVEMAQKLGAALQVGEALVWTKPVKDPKSKHQTTSTSKPASFQQPLGSNQALGQAMSSAAAYRTLPSGAGGTSQFTKPPSLPLEPEPAVESSPTETSEQIREK
partner: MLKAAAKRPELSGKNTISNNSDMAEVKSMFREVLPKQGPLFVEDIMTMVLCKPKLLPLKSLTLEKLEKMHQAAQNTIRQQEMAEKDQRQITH

This assay covers variants of B1. The settings on record: with bbip1_human BBIP1, A8MTZ0.
On to MAEERVATRTQFPVSTESQKPRQKKAPEFPILEKQNWLIHLHYIRKDYEACKAVIKEQLQETQGLCEYAIYVQALIFRLEGNIQESLELFQTCAVLSPQSADNLKQVARSLFLLGKHKAAIEVYNEAAKLNQKDWEISHNLGVCYIYLKQFNKAQDQLHNALNLNRHDLTYIMLGKIHLLEGDLDKAIEVYKKAVEFSPENTELLTTLGLLYLQLGIYQKAFEHLGNALTYDPTNYKAILAAGSMMQTHGDFDVALTKYRVVACAVPESPPLWNNIGMCFFGKKKYVAAISCLKRANYLAPFDWKILYNLGLVHLTMQQYASAFHFLSAAINFQPKMGELYMLLAVALTNLEDIENAKRAYAEAVHLDKCNPLVNLNYAVLLYNQGEKKNALAQYQEMEKKVSLLKKNSSLEFDSEMVEMAQKLGAALQVGEALVWTKPVKDPKSKHQTTSTSKPASFQQPLGSNQALGQAMSSAAAYRTLPSGAGGTSQFTKPPSLPLEPEPAVESSPTETSEQIREK [D407K], for which the “effect of a mutation on the interaction” value is given as “with no effect”.
For MAEERVATRTQFPVSTESQKPRQKKAPEFPILEKQNWLIHLHYIRKDYEACKAVIKEQLQETQGLCEYAIYVQALIFRLEGNIQESLELFQTCAVLSPQSADNLKQVARSLFLLGKHKAAIEVYNEAAKLNQKDWEISHNLGVCYIYLKQFNKAQDQLHNALNLNRHDLTYIMLGKIHLLEGDLDKAIEVYKKAVEFSPENTELLTTLGLLYLQLGIYQKAFEHLGNALTYDPTNYKAILAAGSMMQTHGDFDVALTKYRVVACAVPESPPLWNNIGMCFFGKKKYVAAISCLKRANYLAPFDWKILYNLGLVHLTMQQYASAFHFLSAAINFQPKMGELYMLLAVALTNLEDIENAKRAYAEAVHLDKCNPLVNLNYAVLLYNQGEKKNALAQYQEMEKKVSLLKANSSLEFDSEMVEMAQKLGAALQVGEALVWTKPVKDPKSKHQTTSTSKPASFQQPLGSNQALGQAMSSAAAYRTLPSGAGGTSQFTKPPSLPLEPEPAVESSPTETSEQIREK [D407A] the value was “with no effect”.
To MAEERVATRTQFPVSTESQKPRQKKAPEFPILEKQNWLIHLHYIRKDYEACKAVIKEQLQETQGLCEYAIYVQALIFRLEGNIQESLELFQTCAVLSPQSADNLKQVARSLFLLGKHKAAIEVYNEAAKLNQKDWEISHNLGVCYIYLKQFNKAQDQLHNALNLNRHDLTYIMLGKIHLLEGDLDKAIEVYKKAVEFSPENTELLTTLGLLYLQLGIYQKAFEHLGNALTYDPTNYKAILAAGSMMQTHGDFDVALTKYRVVACAVPESPPLWNNIGMCFFGKKKYVAAISCLKRANYLAPFDWKILYNLGLVHLTMQQYASAFHFLSAAINFQPKMGELYMLLAVALTNLEDIENAKRAYAEAVHLDKCNPLVNLNYAVLLYNQGEKKNALAQYQEMEKKVSLLKENSSLEFDSEMVEMAQKLGAALQVGEALVWTKPVKDPKSKHQTTSTSKPASFQQPLGSNQALGQAMSSAAAYRTLPSGAGGTSQFTKPPSLPLEPEPAVESSPTETSEQIREK [D407E] belongs “with no effect”; to MAEERVATRTQFPVSTESQKPRQKKAPEFPILEKQNWLIHLHYIRKDYEACKAVIKEQLQETQGLCEYAIYVQALIFRLEGNIQESLELFQTCAVLSPQSADNLKQVARSLFLLGKHKAAIEVYNEAAKLNQKDWEISHNLGVCYIYLKQFNKAQDQLHNALNLNRHDLTYIMLGKIHLLEGDLDKAIEVYKKAVEFSPENTELLTTLGLLYLQLGIYQKAFEHLGNALTYDPTNYKAILAAGSMMQTHGDFDVALTKYRVVACAVPESPPLWNNIGMCFFGKKKYVAAISCLKRANYLAPFDWKILYNLGLVHLTMQQYASAFHFLSAAINFQPKMGELYMLLAVALTNLEDIENAKRAYAEAVHLDKCNPLVNLNYAVLLYNQGEKKNALAQYQEMEKKVSLEKDNSSLEFDSEMVEMAQKLGAALQVGEALVWTKPVKDPKSKHQTTSTSKPASFQQPLGSNQALGQAMSSAAAYRTLPSGAGGTSQFTKPPSLPLEPEPAVESSPTETSEQIREK [L405E], “with no effect”; to MAEERVATRTQFPVSTESQKPRQKKAPEFPILEKQNWLIHLHYIRKDYEACKAVIKEQLQETQGLCEYAIYVQALIFRLEGNIQESLELFQTCAVLSPQSADNLKQVARSLFLLGKHKAAIEVYNEAAKLNQKDWEISHNLGVCYIYLKQFNKAQDQLHNALNLNRHDLTYIMLGKIHLLEGDLDKAIEVYKKAVEFSPENTELLTTLGLLYLQLGIYQKAFEHLGNALTYDPTNYKAILAAGSMMQTHGDFDVALTKYRVVACAVPESPPLWNNIGMCFFGKKKYVAAISCLKRANYLAPFDWKILYNLGLVHLTMQQYASAFHFLSAAINFQPKMGELYMLLAVALTNLEDIENAKRAYAEAVHLDKCNPLVNLNYAVLLYNQGEKKNALAQYQEMEKKVSLAKDNSSLEFDSEMVEMAQKLGAALQVGEALVWTKPVKDPKSKHQTTSTSKPASFQQPLGSNQALGQAMSSAAAYRTLPSGAGGTSQFTKPPSLPLEPEPAVESSPTETSEQIREK [L405A], “with no effect”.
For the variant MAEERVATRTQFPVSTESQKPRQKKAPEFPILEKQNWLIHLHYIRKDYEACKAVIKEQLQETQGLCEYAIYVQALIFRLEGNIQESLELFQTCAVLSPQSADNLKQVARSLFLLGKHKAAIEVYNEAAKLNQKDWEISHNLGVCYIYLKQFNKAQDQLHNALNLNRHDLTYIMLGKIHLLEGDLDKAIEVYKKAVEFSPENTELLTTLGLLYLQLGIYQKAFEHLGNALTYDPTNYKAILAAGSMMQTHGDFDVALTKYRVVACAVPESPPLWNNIGMCFFGKKKYVAAISCLKRANYLAPFDWKILYNLGLVHLTMQQYASAFHFLSAAINFQPKMGELYMLLAVALTNLEDIENAKRAYAEAVHLDKCNPLVNLNYAVLLYNQGEKKNALAQYQEMEKKVSLKKDNSSLEFDSEMVEMAQKLGAALQVGEALVWTKPVKDPKSKHQTTSTSKPASFQQPLGSNQALGQAMSSAAAYRTLPSGAGGTSQFTKPPSLPLEPEPAVESSPTETSEQIREK [L405K], the “effect of a mutation on the interaction” value is on record as “with no effect”.
For the variant MAEERVATRTQFPVSTESQKPRQKKAPEFPILEKQNWLIHLHYIRKDYEACKAVIKEQLQETQGLCEYAIYVQALIFRLEGNIQESLELFQTCAVLSPQSADNLKQVARSLFLLGKHKAAIEVYNEAAKLNQKDWEISHNLGVCYIYLKQFNKAQDQLHNALNLNRHDLTYIMLGKIHLLEGDLDKAIEVYKKAVEFSPENTELLTTLGLLYLQLGIYQKAFEHLGNALTYDPTNYKAILAAGSMMQTHGDFDVALTKYRVVACAVPESPPLWNNIGMCFFGKKKYVAAISCLKRANYLAPFDWKILYNLGLVHLTMQQYASAFHFLSAAINFQPKMGELYMLLAVALTNLEDIENAKRAYAEAVHLDKCNPLVNLNYAVLLYNQGEKKNALAQYQEMEKKVSLLADNSSLEFDSEMVEMAQKLGAALQVGEALVWTKPVKDPKSKHQTTSTSKPASFQQPLGSNQALGQAMSSAAAYRTLPSGAGGTSQFTKPPSLPLEPEPAVESSPTETSEQIREK [K406A], the “effect of a mutation on the interaction” value is “with no effect”.
With MAEERVATRTQFPVSTESQKPRQKKAPEFPILEKQNWLIHLHYIRKDYEACKAVIKEQLQETQGLCEYAIYVQALIFRLEGNIQESLELFQTCAVLSPQSADNLKQVARSLFLLGKHKAAIEVYNEAAKLNQKDWEISHNLGVCYIYLKQFNKAQDQLHNALNLNRHDLTYIMLGKIHLLEGDLDKAIEVYKKAVEFSPENTELLTTLGLLYLQLGIYQKAFEHLGNALTYDPTNYKAILAAGSMMQTHGDFDVALTKYRVVACAVPESPPLWNNIGMCFFGKKKYVAAISCLKRANYLAPFDWKILYNLGLVHLTMQQYASAFHFLSAAINFQPKMGELYMLLAVALTNLEDIENAKRAYAEAVHLDKCNPLVNLNYAVLLYNQGEKKNALAQYQEMEKKVSLLEDNSSLEFDSEMVEMAQKLGAALQVGEALVWTKPVKDPKSKHQTTSTSKPASFQQPLGSNQALGQAMSSAAAYRTLPSGAGGTSQFTKPPSLPLEPEPAVESSPTETSEQIREK [K406E], the “effect of a mutation on the interaction” value is reported as “with no effect”.
As to MAEERVATRTQFPVSTESQKPRQKKAPEFPILEKQNWLIHLHYIRKDYEACKAVIKEQLQETQGLCEYAIYVQALIFRLEGNIQESLELFQTCAVLSPQSADNLKQVARSLFLLGKHKAAIEVYNEAAKLNQKDWEISHNLGVCYIYLKQFNKAQDQLHNALNLNRHDLTYIMLGKIHLLEGDLDKAIEVYKKAVEFSPENTELLTTLGLLYLQLGIYQKAFEHLGNALTYDPTNYKAILAAGSMMQTHGDFDVALTKYRVVACAVPESPPLWNNIGMCFFGKKKYVAAISCLKRANYLAPFDWKILYNLGLVHLTMQQYASAFHFLSAAINFQPKMGELYMLLAVALTNLEDIENAKRAYAEAVHLDKCNPLVNLNYAVLLYNQGEKKNALAQYQEMEKKVSKLKDNSSLEFDSEMVEMAQKLGAALQVGEALVWTKPVKDPKSKHQTTSTSKPASFQQPLGSNQALGQAMSSAAAYRTLPSGAGGTSQFTKPPSLPLEPEPAVESSPTETSEQIREK [L404K], the “effect of a mutation on the interaction” value is recorded as “with no effect”.
Turning to MAEERVATRTQFPVSTESQKPRQKKAPEFPILEKQNWLIHLHYIRKDYEACKAVIKEQLQETQGLCEYAIYVQALIFRLEGNIQESLELFQTCAVLSPQSADNLKQVARSLFLLGKHKAAIEVYNEAAKLNQKDWEISHNLGVCYIYLKQFNKAQDQLHNALNLNRHDLTYIMLGKIHLLEGDLDKAIEVYKKAVEFSPENTELLTTLGLLYLQLGIYQKAFEHLGNALTYDPTNYKAILAAGSMMQTHGDFDVALTKYRVVACAVPESPPLWNNIGMCFFGKKKYVAAISCLKRANYLAPFDWKILYNLGLVHLTMQQYASAFHFLSAAINFQPKMGELYMLLAVALTNLEDIENAKRAYAEAVHLDKCNPLVNLNYAVLLYNQGEKKNALAQYQEMEKKVSLLKDESSLEFDSEMVEMAQKLGAALQVGEALVWTKPVKDPKSKHQTTSTSKPASFQQPLGSNQALGQAMSSAAAYRTLPSGAGGTSQFTKPPSLPLEPEPAVESSPTETSEQIREK [N408E], the “effect of a mutation on the interaction” value is “with no effect”.
On to MAEERVATRTQFPVSTESQKPRQKKAPEFPILEKQNWLIHLHYIRKDYEACKAVIKEQLQETQGLCEYAIYVQALIFRLEGNIQESLELFQTCAVLSPQSADNLKQVARSLFLLGKHKAAIEVYNEAAKLNQKDWEISHNLGVCYIYLKQFNKAQDQLHNALNLNRHDLTYIMLGKIHLLEGDLDKAIEVYKKAVEFSPENTELLTTLGLLYLQLGIYQKAFEHLGNALTYDPTNYKAILAAGSMMQTHGDFDVALTKYRVVACAVPESPPLWNNIGMCFFGKKKYVAAISCLKRANYLAPFDWKILYNLGLVHLTMQQYASAFHFLSAAINFQPKMGELYMLLAVALTNLEDIENAKRAYAEAVHLDKCNPLVNLNYAVLLYNQGEKKNALAQYQEMEKKVSLLKDKSSLEFDSEMVEMAQKLGAALQVGEALVWTKPVKDPKSKHQTTSTSKPASFQQPLGSNQALGQAMSSAAAYRTLPSGAGGTSQFTKPPSLPLEPEPAVESSPTETSEQIREK [N408K], for which the “effect of a mutation on the interaction” value is “with no effect”.
To MAEERVATRTQFPVSTESQKPRQKKAPEFPILEKQNWLIHLHYIRKDYEACKAVIKEQLQETQGLCEYAIYVQALIFRLEGNIQESLELFQTCAVLSPQSADNLKQVARSLFLLGKHKAAIEVYNEAAKLNQKDWEISHNLGVCYIYLKQFNKAQDQLHNALNLNRHDLTYIMLGKIHLLEGDLDKAIEVYKKAVEFSPENTELLTTLGLLYLQLGIYQKAFEHLGNALTYDPTNYKAILAAGSMMQTHGDFDVALTKYRVVACAVPESPPLWNNIGMCFFGKKKYVAAISCLKRANYLAPFDWKILYNLGLVHLTMQQYASAFHFLSAAINFQPKMGELYMLLAVALTNLEDIENAKRAYAEAVHLDKCNPLVNLNYAVLLYNQGEKKNALAQYQEMEKKVSLLKDASSLEFDSEMVEMAQKLGAALQVGEALVWTKPVKDPKSKHQTTSTSKPASFQQPLGSNQALGQAMSSAAAYRTLPSGAGGTSQFTKPPSLPLEPEPAVESSPTETSEQIREK [N408A] belongs “with no effect”.
